Results: the supplement of paper PMC9732359
± gives the uncertainty stated by the source.

Test: protein stability index of a GFP-peptide fusion (yeast GPS) (PSI 1-4); higher = more stable; sorted into four equal gates, so the index is relative within each strain
Procedure, shortened: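 Tiled 17-residue peptides from yeast proteins were fused downstream of GFP on a plasmid that also expresses Cherry, and the pooled library was carried in yeast. Mid-log cultures grown in leucine-free medium were sorted into four equal gates by GFP/Cherry fluorescence ratio. Plasmids from each gate were PCR-amplified and Illumina-sequenced, and reads were assigned to strains by barcodes. Each peptide's protein stability index is the sum, over gates, of the gate's read frequency multiplied by its gate number.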

| Sequence | protein stability index (doa10∆) | protein stability index (pdr5∆) | protein stability index (san1∆) | protein stability index (ubr1∆) |
| --- | --- | --- | --- | --- |
| ITVTAKQQPTMQANKLD [SWI3] | 3.19 ± 0.096 | 3.15 ± 0.071 | 2.82 ± 0.07 | 3.01 ± 0.055 |
| PVKALNECIASTSNALK [SNF12] | 2.85 ± 0.056 | 2.8 ± 0.066 | 2.75 ± 0.05 | 2.81 ± 0.051 |
| ASLKKMEETEQKKIQIN [SMC3] | 2.33 ± 0.22 | 1.82 ± 0.076 | 3.1 ± 0.13 | 2.23 ± 0.11 |
| LERTAIELKTDWVRFLA [RPN1] | 1.58 ± 0.13 | 1.49 ± 0.098 | 1.55 ± 0.11 | 1.17 ± 0.067 |
| PQQAQQQPNPLHGLTPT [GAL11] | 3 ± 0.068 | 2.95 ± 0.042 | 2.83 ± 0.051 | 3.05 ± 0.035 |
| LFLTAPDSCNMQEKAAH [YCS4] | – | 2.67 ± 0.24 | 2.86 ± 0.12 | 2.92 ± 0.11 |
| IPNLTAKPFQVTKEYFQ [FAS1] | 2.61 ± 0.051 | 2.95 ± 0.049 | 3.04 ± 0.061 | 2.79 ± 0.041 |
| AIQKKDNKDKEGNAGGD [YOR098C/NUP1] | 3.44 ± 0.17 | 3.32 ± 0.18 | 3.25 ± 0.1 | 3.44 ± 0.11 |
| NYKQLTLVGGGAKITPE [RRP43] | 1.86 ± 0.11 | 1.94 ± 0.11 | 2.22 ± 0.18 | 2.01 ± 0.15 |
| QFIKSNFEKILLTCYEL [SRB8] | – | 3 ± 0.23 | – | – |
| GYCDDIAAMVAQKCGWT [SIR2] | 1.76 ± 0.11 | 1.9 ± 0.094 | 2.44 ± 0.16 | 1.74 ± 0.052 |
| AVEKTLALGCHFQDQKN [POP7] | 2.42 ± 0.12 | 3.12 ± 0.11 | 2.87 ± 0.078 | 2.78 ± 0.096 |
| MNKDQAEKYQERSLRQK [SNM1] | 3.3 ± 0.089 | 3.25 ± 0.089 | 3.35 ± 0.069 | 3.53 ± 0.093 |
| QEGMNECPGHFGHIDLA [RPO21] | 3.27 ± 0.21 | 3.25 ± 0.098 | 3.33 ± 0.074 | 3.29 ± 0.09 |
| IESDSILNLLNILTTHL [ECM29] | 2.39 ± 0.043 | 2.02 ± 0.046 | 1.75 ± 0.049 | 2.32 ± 0.049 |
| KYLEQVLDHQRAIPFRR [RPL17A] | 2.52 ± 0.059 | 2.35 ± 0.055 | 1.61 ± 0.083 | 1.78 ± 0.043 |
| VNHLLLFAREIAKSQDK [DPB4] | 2.06 ± 0.15 | 2.85 ± 0.16 | 2.76 ± 0.14 | 2.08 ± 0.068 |
| IPRHLQLAIRNDDELNK [HTA1] | 3.02 ± 0.093 | 3.23 ± 0.063 | 3.28 ± 0.059 | 2.89 ± 0.062 |
| LRSIYHQFHDILEEKTD [NSL1] | 2.22 ± 0.062 | 2.07 ± 0.047 | 2.18 ± 0.074 | 2.04 ± 0.04 |
| SLLERHIPRLIPKQLLD [YJL039C/NUP192] | 2.11 ± 0.096 | 1.38 ± 0.071 | 1.23 ± 0.095 | 1.45 ± 0.076 |
| DRAIRKTCQWYSEHLKP [DIS3] | 3.17 ± 0.089 | 3.1 ± 0.096 | 3.01 ± 0.07 | 3.3 ± 0.12 |
| SSVMSSPRVEKRSFSST [YOR098C/NUP1] | 2.75 ± 0.057 | 2.23 ± 0.041 | 2.44 ± 0.052 | 2.54 ± 0.039 |
| NPLAKTMADAVRELGIL [SEC65] | 2.78 ± 0.058 | 2.3 ± 0.06 | 2.42 ± 0.075 | 1.84 ± 0.053 |
| LKNYVLNELHPTLPTNH [PRP8] | 2.73 ± 0.047 | 3.04 ± 0.054 | 2.53 ± 0.064 | 2.67 ± 0.031 |
| SSATIVLCLTRSSYMLE [YCG1] | 1.76 ± 0.035 | 2.1 ± 0.038 | 1.91 ± 0.048 | 2.23 ± 0.032 |
| KELDALQEKEQLYFKKK [ISW2] | 3.22 ± 0.11 | 3.15 ± 0.14 | 3.24 ± 0.25 | 3.55 ± 0.11 |
| IELTSYESIATYASVTG [RPN7] | 1.1 ± 0.077 | 1.31 ± 0.068 | 1.11 ± 0.22 | 1.15 ± 0.12 |
